Measurements published in publication PMC9482650, “Quantitative fragmentomics allow affinity mapping of interactomes” (Nature Communications, 2022).
Each block holds one binder with its values, some of them ahead of it.

Columns and labels:
Experiment in all cases: holdup assay
Set-up in all cases: key: below the threshold = too weak to quantify, mostly under pKd 3.1 to 4
Conditions in all cases: plain residues with an end cap or a label only (N-terminal biotin on a linker: ado-ado)
DFNB31_2, Q9P202 = molecular target: T1, DFNB31_2, Q9P202
T1 sequence (Q9P202 274-371, limits assumed, looked up): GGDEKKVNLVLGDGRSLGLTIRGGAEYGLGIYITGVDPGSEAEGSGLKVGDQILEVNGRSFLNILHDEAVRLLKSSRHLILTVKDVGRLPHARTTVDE

DLG1_3, Q12959 = molecular target: DLG1_3, Q12959
IL16_1, Q14005 = molecular target: IL16_1, Q14005
DLG3_3, Q92796 = molecular target: T2, DLG3_3, Q92796
T2 sequence (Q92796 374-475, limits assumed, looked up): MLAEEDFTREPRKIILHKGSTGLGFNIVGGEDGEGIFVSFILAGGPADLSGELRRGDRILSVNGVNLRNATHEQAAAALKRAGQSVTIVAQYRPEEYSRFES

GORASP1, Q9BQQ3 = molecular target: GORASP1, Q9BQQ3
Inadl_8, Q8NI35 = molecular target: Inadl_8, Q8NI35
MAGI2_6, Q86UL8 = molecular target: MAGI2_6, Q86UL8
MPP2, Q14168 = molecular target: T3, MPP2, Q14168
T3 sequence (Q14168 180-250, limits assumed, looked up): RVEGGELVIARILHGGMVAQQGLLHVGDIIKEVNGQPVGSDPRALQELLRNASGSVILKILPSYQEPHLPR

DLG4_3, P78352 = molecular target: DLG4_3, P78352
GRID2IP_1, A4D2P6 = molecular target: GRID2IP_1, A4D2P6
GRIP1_5, Q9Y3R0 = molecular target: T4, GRIP1_5, Q9Y3R0
T4 sequence (Q9Y3R0 568-668, limits assumed, looked up): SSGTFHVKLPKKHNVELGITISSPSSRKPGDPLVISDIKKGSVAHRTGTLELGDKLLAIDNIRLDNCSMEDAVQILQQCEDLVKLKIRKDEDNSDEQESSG

NHERF3_1, Q5T2W1 = molecular target: T5, NHERF3_1, Q5T2W1
T5 sequence (Q5T2W1 4-100, limits assumed, looked up): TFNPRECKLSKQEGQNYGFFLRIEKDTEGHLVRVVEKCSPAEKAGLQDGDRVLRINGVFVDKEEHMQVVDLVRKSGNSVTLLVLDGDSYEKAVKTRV

PICK1, Q9NRD5 = molecular target: PICK1, Q9NRD5
FRMPD2_2, Q68DX3 = molecular target: FRMPD2_2, Q68DX3
NOS1, P29475 = molecular target: NOS1, P29475
NHERF3_3, Q5T2W1 = molecular target: T6, NHERF3_3, Q5T2W1
T6 sequence (Q5T2W1 238-333, limits assumed, looked up): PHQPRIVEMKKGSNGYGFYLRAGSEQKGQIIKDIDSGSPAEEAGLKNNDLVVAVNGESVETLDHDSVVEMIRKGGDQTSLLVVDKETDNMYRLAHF

TIAM2, Q8IVF5 = molecular target: T7, TIAM2, Q8IVF5
T7 sequence (Q8IVF5 885-986, limits assumed, looked up): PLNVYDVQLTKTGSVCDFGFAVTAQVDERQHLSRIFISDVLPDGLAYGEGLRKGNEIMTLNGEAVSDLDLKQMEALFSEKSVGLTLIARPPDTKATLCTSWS

TJP3_3, O95049 = molecular target: T8, TJP3_3, O95049
T8 sequence (O95049 375-456, limits assumed, looked up): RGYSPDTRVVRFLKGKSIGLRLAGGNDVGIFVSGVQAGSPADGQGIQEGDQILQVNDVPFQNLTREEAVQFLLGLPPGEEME

PTPN3, P26045 = molecular target: PTPN3, P26045
DLG4_1, P78352 = molecular target: DLG4_1, P78352
NHERF4_1, Q86UT5-2 = molecular target: NHERF4_1, Q86UT5-2
LNX2_2, Q8N448 = molecular target: T9, LNX2_2, Q8N448
T9 sequence (Q8N448 334-432, limits assumed, looked up): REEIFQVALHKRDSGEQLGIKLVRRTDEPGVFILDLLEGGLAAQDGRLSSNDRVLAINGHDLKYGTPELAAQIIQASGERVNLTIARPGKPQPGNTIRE

PCLO, Q9Y6V0 = molecular target: T10, PCLO, Q9Y6V0
T10 sequence (Q9Y6V0 4491-4600, limits assumed, looked up): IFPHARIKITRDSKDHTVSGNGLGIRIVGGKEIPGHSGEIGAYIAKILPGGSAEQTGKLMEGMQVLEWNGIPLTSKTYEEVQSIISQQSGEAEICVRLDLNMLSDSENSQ

SHANK1, Q9Y566 = molecular target: T11, SHANK1, Q9Y566
T11 sequence (Q9Y566 658-767, limits assumed, looked up): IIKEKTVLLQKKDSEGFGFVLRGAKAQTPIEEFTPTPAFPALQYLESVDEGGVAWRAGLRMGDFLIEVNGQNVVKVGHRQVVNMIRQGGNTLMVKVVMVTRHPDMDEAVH

MAGI2_2, Q86UL8 = molecular target: MAGI2_2, Q86UL8
Inadl_6, Q8NI35 = molecular target: Inadl_6, Q8NI35
TJP1_3, Q07157 = molecular target: TJP1_3, Q07157
TJP1_3, Q07157, sequence (Q07157 416-512): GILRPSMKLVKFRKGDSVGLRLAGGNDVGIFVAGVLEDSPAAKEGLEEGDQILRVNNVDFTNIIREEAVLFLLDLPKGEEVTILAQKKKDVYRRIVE

PICK1, Q9NRD5, sequence (Q9NRD5 17-115): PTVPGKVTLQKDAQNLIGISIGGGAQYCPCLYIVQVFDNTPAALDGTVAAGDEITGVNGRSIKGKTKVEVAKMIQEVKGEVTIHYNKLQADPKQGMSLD
FRMPD2_2, Q68DX3, sequence (Q68DX3 944-1038): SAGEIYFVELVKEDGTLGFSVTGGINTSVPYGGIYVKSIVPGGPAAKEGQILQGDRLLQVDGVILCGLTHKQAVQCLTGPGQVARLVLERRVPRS
PTPN3, P26045, sequence (P26045 505-587): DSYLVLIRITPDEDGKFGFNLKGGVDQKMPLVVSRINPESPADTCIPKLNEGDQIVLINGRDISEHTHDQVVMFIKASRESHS
GORASP1, Q9BQQ3, sequence (Q9BQQ3 1-208): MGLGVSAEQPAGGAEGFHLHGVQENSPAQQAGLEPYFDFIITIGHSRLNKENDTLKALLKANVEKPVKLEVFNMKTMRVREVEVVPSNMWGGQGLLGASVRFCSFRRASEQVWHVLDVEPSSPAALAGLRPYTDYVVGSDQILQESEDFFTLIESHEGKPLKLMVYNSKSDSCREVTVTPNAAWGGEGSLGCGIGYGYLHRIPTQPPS
NHERF4_1, Q86UT5-2, sequence (Q86UT5 other isoform, or with tags, fused parts or gaps): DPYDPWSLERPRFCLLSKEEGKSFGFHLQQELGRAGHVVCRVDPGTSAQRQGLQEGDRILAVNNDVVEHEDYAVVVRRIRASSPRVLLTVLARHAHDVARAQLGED
GRID2IP_1, A4D2P6, sequence (A4D2P6 1-87): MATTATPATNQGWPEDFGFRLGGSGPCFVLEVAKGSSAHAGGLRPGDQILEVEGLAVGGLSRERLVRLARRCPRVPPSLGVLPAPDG
Inadl_8, Q8NI35, sequence (Q8NI35 1425-1530): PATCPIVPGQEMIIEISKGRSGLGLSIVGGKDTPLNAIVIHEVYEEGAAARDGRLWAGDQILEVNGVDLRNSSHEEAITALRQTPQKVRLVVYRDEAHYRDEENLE
DLG4_1, P78352, sequence (P78352 62-152): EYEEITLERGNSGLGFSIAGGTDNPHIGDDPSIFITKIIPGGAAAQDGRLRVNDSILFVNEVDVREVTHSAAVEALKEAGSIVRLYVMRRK
DLG4_3, P78352, sequence (P78352 306-403): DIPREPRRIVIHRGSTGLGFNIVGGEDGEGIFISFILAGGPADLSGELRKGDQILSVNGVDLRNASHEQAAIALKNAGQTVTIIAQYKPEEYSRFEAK
NOS1, P29475, sequence (P29475 9-101): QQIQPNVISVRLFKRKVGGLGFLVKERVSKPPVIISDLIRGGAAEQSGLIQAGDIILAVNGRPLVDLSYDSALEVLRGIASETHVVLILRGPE
IL16_1, Q14005, sequence (Q14005 210-306): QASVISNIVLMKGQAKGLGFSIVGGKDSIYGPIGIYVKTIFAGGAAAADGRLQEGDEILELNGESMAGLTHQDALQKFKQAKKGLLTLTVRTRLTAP
DLG1_3, Q12959, sequence (Q12959 457-571): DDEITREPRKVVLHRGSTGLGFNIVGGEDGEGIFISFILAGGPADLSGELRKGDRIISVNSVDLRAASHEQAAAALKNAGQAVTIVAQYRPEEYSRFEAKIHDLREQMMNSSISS
MAGI2_6, Q86UL8, sequence (Q86UL8 1141-1229): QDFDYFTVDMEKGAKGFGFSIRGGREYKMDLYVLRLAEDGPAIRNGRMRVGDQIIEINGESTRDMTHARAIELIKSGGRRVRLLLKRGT
Inadl_6, Q8NI35, sequence (Q8NI35 1058-1167): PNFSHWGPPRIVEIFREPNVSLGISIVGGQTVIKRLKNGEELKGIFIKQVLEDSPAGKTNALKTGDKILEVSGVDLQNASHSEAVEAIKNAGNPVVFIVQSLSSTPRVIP
MAGI2_2, Q86UL8, sequence (Q86UL8 410-522): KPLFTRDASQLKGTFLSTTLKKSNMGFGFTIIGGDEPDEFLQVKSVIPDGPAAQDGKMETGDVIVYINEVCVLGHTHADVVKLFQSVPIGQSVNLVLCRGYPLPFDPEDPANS

B2: LRRC4B, Q9NT99 (peptide)
chain: SKENVQETQI
pKd (DFNB31_2, Q9P202): below the threshold | pKd (DLG1_3, Q12959): 3.77 | pKd (IL16_1, Q14005): below the threshold | pKd (DLG3_3, Q92796): 3.68 | pKd (GORASP1, Q9BQQ3): below the threshold | pKd (Inadl_8, Q8NI35): below the threshold | pKd (MAGI2_6, Q86UL8): 3.92 | pKd (MPP2, Q14168): below the threshold | pKd (DLG4_3, P78352): below the threshold | pKd (GRID2IP_1, A4D2P6): below the threshold | pKd (GRIP1_5, Q9Y3R0): below the threshold | pKd (NHERF3_1, Q5T2W1): 5.07 | pKd (PICK1, Q9NRD5): below the threshold | pKd (FRMPD2_2, Q68DX3): 3.92 | pKd (NOS1, P29475): 3.85 | pKd (NHERF3_3, Q5T2W1): below the threshold | pKd (TIAM2, Q8IVF5): 4.1 | pKd (TJP3_3, O95049): below the threshold | pKd (PTPN3, P26045): 4.8 | pKd (DLG4_1, P78352): 4.02 | pKd (NHERF4_1, Q86UT5-2): below the threshold | pKd (LNX2_2, Q8N448): below the threshold | pKd (PCLO, Q9Y6V0): below the threshold | pKd (SHANK1, Q9Y566): 3.98 | pKd (MAGI2_2, Q86UL8): below the threshold | pKd (Inadl_6, Q8NI35): 3.71 | pKd (TJP1_3, Q07157): below the threshold

B3: BAZ1A, Q9NRL2 (peptide)
chain: TPPAAKKSRI
pKd (DFNB31_2, Q9P202): below the threshold | pKd (DLG1_3, Q12959): 3.81 | pKd (IL16_1, Q14005): below the threshold | pKd (DLG3_3, Q92796): below the threshold | pKd (GORASP1, Q9BQQ3): below the threshold | pKd (Inadl_8, Q8NI35): 4.35 | pKd (MAGI2_6, Q86UL8): below the threshold | pKd (MPP2, Q14168): below the threshold | pKd (DLG4_3, P78352): below the threshold | pKd (GRID2IP_1, A4D2P6): below the threshold | pKd (GRIP1_5, Q9Y3R0): below the threshold | pKd (NHERF3_1, Q5T2W1): below the threshold | pKd (PICK1, Q9NRD5): below the threshold | pKd (FRMPD2_2, Q68DX3): below the threshold | pKd (NOS1, P29475): 3.51 | pKd (NHERF3_3, Q5T2W1): below the threshold | pKd (TIAM2, Q8IVF5): below the threshold | pKd (TJP3_3, O95049): below the threshold | pKd (PTPN3, P26045): 3.93 | pKd (DLG4_1, P78352): below the threshold | pKd (NHERF4_1, Q86UT5-2): below the threshold | pKd (LNX2_2, Q8N448): below the threshold | pKd (PCLO, Q9Y6V0): below the threshold | pKd (SHANK1, Q9Y566): 3.53 | pKd (MAGI2_2, Q86UL8): below the threshold | pKd (Inadl_6, Q8NI35): below the threshold | pKd (TJP1_3, Q07157): below the threshold

B4: KCNA1, Q09470 (peptide)
chain: VNKSKLLTDV
pKd (DFNB31_2, Q9P202): below the threshold | pKd (DLG1_3, Q12959): below the threshold | pKd (IL16_1, Q14005): below the threshold | pKd (DLG3_3, Q92796): below the threshold | pKd (GORASP1, Q9BQQ3): below the threshold | pKd (Inadl_8, Q8NI35): 3.91 | pKd (MAGI2_6, Q86UL8): 3.88 | pKd (MPP2, Q14168): below the threshold | pKd (DLG4_3, P78352): 3.53 | pKd (GRID2IP_1, A4D2P6): below the threshold | pKd (GRIP1_5, Q9Y3R0): below the threshold | pKd (NHERF3_1, Q5T2W1): below the threshold | pKd (PICK1, Q9NRD5): below the threshold | pKd (FRMPD2_2, Q68DX3): below the threshold | pKd (NOS1, P29475): below the threshold | pKd (NHERF3_3, Q5T2W1): below the threshold | pKd (TIAM2, Q8IVF5): 3.95 | pKd (TJP3_3, O95049): below the threshold | pKd (PTPN3, P26045): 3.65 | pKd (DLG4_1, P78352): 4.08 | pKd (NHERF4_1, Q86UT5-2): below the threshold | pKd (LNX2_2, Q8N448): below the threshold | pKd (PCLO, Q9Y6V0): below the threshold | pKd (SHANK1, Q9Y566): below the threshold | pKd (MAGI2_2, Q86UL8): 4.06 | pKd (Inadl_6, Q8NI35): below the threshold | pKd (TJP1_3, Q07157): below the threshold

Further lines, results first:

pKd (DFNB31_2, Q9P202): 3.94 | pKd (DLG1_3, Q12959): 3.53 | pKd (IL16_1, Q14005): below the threshold | pKd (DLG3_3, Q92796): below the threshold | pKd (GORASP1, Q9BQQ3): below the threshold | pKd (Inadl_8, Q8NI35): below the threshold | pKd (MAGI2_6, Q86UL8): 3.88 | pKd (MPP2, Q14168): below the threshold | pKd (DLG4_3, P78352): below the threshold | pKd (GRID2IP_1, A4D2P6): below the threshold | pKd (GRIP1_5, Q9Y3R0): below the threshold | pKd (NHERF3_1, Q5T2W1): 6.04 | pKd (PICK1, Q9NRD5): 3.95 | pKd (FRMPD2_2, Q68DX3): below the threshold | pKd (NOS1, P29475): below the threshold | pKd (NHERF3_3, Q5T2W1): 4.67 | pKd (TIAM2, Q8IVF5): 3.94 | pKd (TJP3_3, O95049): below the threshold | pKd (PTPN3, P26045): 5.21 | pKd (DLG4_1, P78352): below the threshold | pKd (NHERF4_1, Q86UT5-2): 3.87 | pKd (LNX2_2, Q8N448): below the threshold | pKd (PCLO, Q9Y6V0): below the threshold | pKd (SHANK1, Q9Y566): 4.52 | pKd (MAGI2_2, Q86UL8): below the threshold | pKd (Inadl_6, Q8NI35): 4.22 | pKd (TJP1_3, Q07157): below the threshold
B1: ASNSD1, Q9NWL6 (peptide)
chain: NLSIEKETKL

pKd (DFNB31_2, Q9P202): below the threshold | pKd (DLG1_3, Q12959): below the threshold | pKd (IL16_1, Q14005): below the threshold | pKd (DLG3_3, Q92796): below the threshold | pKd (GORASP1, Q9BQQ3): below the threshold | pKd (Inadl_8, Q8NI35): below the threshold | pKd (MAGI2_6, Q86UL8): 3.56 | pKd (MPP2, Q14168): below the threshold | pKd (DLG4_3, P78352): below the threshold | pKd (GRID2IP_1, A4D2P6): below the threshold | pKd (GRIP1_5, Q9Y3R0): below the threshold | pKd (NHERF3_1, Q5T2W1): 5.39 | pKd (PICK1, Q9NRD5): 4.17 | pKd (FRMPD2_2, Q68DX3): below the threshold | pKd (NOS1, P29475): below the threshold | pKd (NHERF3_3, Q5T2W1): below the threshold | pKd (TIAM2, Q8IVF5): below the threshold | pKd (TJP3_3, O95049): below the threshold | pKd (PTPN3, P26045): 4.35 | pKd (DLG4_1, P78352): below the threshold | pKd (NHERF4_1, Q86UT5-2): below the threshold | pKd (LNX2_2, Q8N448): below the threshold | pKd (PCLO, Q9Y6V0): below the threshold | pKd (SHANK1, Q9Y566): 3.73 | pKd (MAGI2_2, Q86UL8): below the threshold | pKd (Inadl_6, Q8NI35): 3.54 | pKd (TJP1_3, Q07157): below the threshold
B5: KCNJ1, P48048 (peptide)
chain: EVNETDDTKM
